Source: US20200339678A1 (RIGEL PHARMACEUTICALS, published 2020)

Tests used:
[1] = biological target: T1, human TIGIT fused to a beta galactosidase portion, on YTS cells (YTS_hTIGIT/hGrb2) (human, UniProt Q495A1 22-244); experiment: cell-based or functional assay
T1 sequence (looked up): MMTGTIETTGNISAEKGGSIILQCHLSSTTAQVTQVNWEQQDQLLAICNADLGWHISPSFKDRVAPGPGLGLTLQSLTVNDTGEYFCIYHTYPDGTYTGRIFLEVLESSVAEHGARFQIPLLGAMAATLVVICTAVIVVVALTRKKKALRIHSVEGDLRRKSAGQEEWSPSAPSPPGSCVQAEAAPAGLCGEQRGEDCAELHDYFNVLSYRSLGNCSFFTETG

[2] = biological target: T2, His-tagged recombinant Mouse TIGIT (mouse, UniProt P86176 29-148, limits assumed); experiment: ELISA
T2 construct: coated antigen of the direct ELISA; not shown: His tag
T2 sequence (looked up): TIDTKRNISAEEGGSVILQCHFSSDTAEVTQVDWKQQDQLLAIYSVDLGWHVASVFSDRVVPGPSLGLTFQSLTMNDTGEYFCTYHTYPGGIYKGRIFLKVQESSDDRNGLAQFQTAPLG
Protocol: (§1) Binding affinities for antigen binding to anti-TIGIT monoclonal antibodies were determined by ELISA. […] Antibodies to be tested were diluted to 1 μM in PBS buffer containing 1% BSA and diluted 3-fold in a 10-point curve. […] Detection of the secondary antibody was determined using streptavidin-HRP and TMB reagent. All assays were performed at room temperature. Curve-fitting software was used to determine the EC₅₀ for each antibody.

[3] = biological target: T3, His-tagged recombinant Human TIGIT (human, UniProt Q495A1 22-141); experiment: ELISA
T3 construct: coated antigen of the direct ELISA; not shown: His tag
T3 sequence (looked up): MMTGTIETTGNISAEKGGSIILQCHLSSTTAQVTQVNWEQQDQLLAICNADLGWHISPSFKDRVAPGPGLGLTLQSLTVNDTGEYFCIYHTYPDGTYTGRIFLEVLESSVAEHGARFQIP
Protocol: as §1

mouse TIGIT-Fc [4] = biological target: T4, mouse TIGIT-Fc (mouse, UniProt P86176 29-148); experiment: comp. ELISA vs PVR
T4 construct: extracellular domain; also called TIGIT-ECD; not shown: Fc
T4 sequence (looked up): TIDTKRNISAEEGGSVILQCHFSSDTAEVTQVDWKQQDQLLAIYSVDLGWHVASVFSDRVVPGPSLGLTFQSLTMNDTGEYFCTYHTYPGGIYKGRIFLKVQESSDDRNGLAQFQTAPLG
Protocol: (§2) Antibodies were serially diluted in a 10-point curve starting at 1 μM in 3-fold steps. […] Units are in microM.

biotinylated human TIGIT [5] = biological target: T5, biotinylated human TIGIT (human, UniProt Q495A1 22-141, biotinylated (EZ-Link NHS-PEG4-biotin kit)); experiment: comp. ELISA vs PVR
T5 construct: extracellular domain; also called TIGIT-ECD
T5 sequence (looked up): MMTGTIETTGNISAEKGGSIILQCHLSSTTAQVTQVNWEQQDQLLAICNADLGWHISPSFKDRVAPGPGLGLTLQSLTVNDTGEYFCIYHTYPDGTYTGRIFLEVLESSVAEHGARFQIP
Protocol: as §2

biotinylated human TIGIT [6] = biological target: T6, biotinylated human TIGIT (human, UniProt Q495A1 22-141, biotinylated (EZ-Link NHS-PEG4-biotin kit)); experiment: competitive ELISA, biotin-hTIGIT to coated PVR
T6 construct: extracellular domain; also called human TIGIT extra cellular domain; TIGIT-ECD
T6 sequence (looked up): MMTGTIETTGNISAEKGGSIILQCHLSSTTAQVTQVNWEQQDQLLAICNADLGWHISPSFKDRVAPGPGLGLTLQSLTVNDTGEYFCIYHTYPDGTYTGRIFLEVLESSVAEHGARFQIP
Protocol: as §2

mouse TIGIT-Fc [7] = biological target: T7, mouse TIGIT-Fc (mouse, UniProt P86176 29-148); experiment: competitive ELISA, mTIGIT-Fc to coated PVR
T7 construct: extracellular domain; also called mouse TIGIT extra cellular domain
T7 sequence (looked up): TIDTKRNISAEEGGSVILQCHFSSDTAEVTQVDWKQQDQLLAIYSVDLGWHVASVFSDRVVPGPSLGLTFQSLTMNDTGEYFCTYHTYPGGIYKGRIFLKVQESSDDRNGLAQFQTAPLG
Protocol: as §2

[8] = biological target: T8, human TIGIT fused to a beta galactosidase fragment, expressed on YTS cells (human, UniProt Q495A1 22-244); experiment: cell-based or functional assay
T8 sequence (looked up): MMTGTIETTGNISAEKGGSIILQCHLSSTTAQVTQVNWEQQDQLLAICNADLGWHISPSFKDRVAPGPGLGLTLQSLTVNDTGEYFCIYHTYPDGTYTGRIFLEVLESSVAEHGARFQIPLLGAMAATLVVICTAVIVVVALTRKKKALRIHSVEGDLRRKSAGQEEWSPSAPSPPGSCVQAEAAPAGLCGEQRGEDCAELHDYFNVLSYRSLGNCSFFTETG

Binder	YTS_hTIGI/hGrbs_EFC_Agonism, 221_WT [1] [µM]	YTS_hTIGI/hGrbs_EFC_Antagonism, 221_hPVR/ICAM [1] [µM]	EC50 [2] [nM]	EC50 [3] [nM]	IC50 (mouse TIGIT-Fc [4]) [nM]	IC50 (biotinylated human TIGIT [5]) [nM]	IC50 (biotinylated human TIGIT [6]) [nM]	IC50 (mouse TIGIT-Fc [7]) [nM]	EC50 of induced dimerization (YTS_hTIGIT/hTIGIT, 11 pt) [8] [nM]
Ab22i2 (antibody, V domains shown, mIgG2a of Ab22) VH: EVQLLESGGGLVQPGGSLRLSCAASGFTFSSYSMHWVRQAPGKGLEWVASIKSSGGSKYYADSVKGRFTISRDNSKNTLYLQMNSLRAEDTAVYYCARVPYDYWMDYWGQGTLVTVSS VL: not shown	> 1	> 1	0.2	1.8	2.6	38.3	–	–	–
Ab48 (Fab, V domains shown, clone from a phage library of monovalent human Fabs; also called clone Ab48) VH: EVQLLESGGGLVQPGGSLRLSCAASGFTFSSYSMNWVRQAPGKGLEWVANIKSSGSSTSYADSVKGRFTISRDNSKNTLYLQMNSLRAEDTAVYYCARGPYDVWMDYWGQGTLVTVSS VL: not shown	–	–	–	–	–	–	111	64.7	477
Ab40i5 (antibody, V domains shown) VH: EVQLLESGGGLVQPGGSLRLSCAASGFTFSSYSMNWVRQAPGKGLEWVAGIKSSSGNKYYADSVKGRFTISRDNSKNTLYLQMNSLRAEDTAVYYCARGPYDVWMDYWGQGTLVTVSS VL: not shown	0.0358	0.238	2.4	0.2	16.9	4.2	–	–	–
Ab53 (Fab, V domains shown) VH: EVQLLESGGGLVQPGGSLRLSCAASGFTFSSYSMHWVRQAPGKGLEWVASIKSSSSNKYYADSVKGRFTISRDNSKNTLYLQMNSLRAEDTAVYYCARGPYDVWLDYWGQGTLVTVSS VL: not shown	–	0.0303	7.6	4.3	35.3	9	–	–	–
Ab28i1 (antibody, V domains shown, hIgG1 of Ab28) VH: EVQLLESGGGLVQPGGSLRLSCAASGFTFSSYSMHWVRQAPGKGLEWVANINSNGGNTGYADSVKGRFTISRDNSKNTLYLQMNSLRAEDTAVYYCARVPYDVWMDYWGQGTLVTVSS VL: not shown	–	0.0758	2.7	0.4	1.3	1.2	–	–	–
Ab40i6 (antibody, V domains shown, hIgG1 of Ab40, Y52aS) VH: EVQLLESGGGLVQPGGSLRLSCAASGFTFSSYGMNWVRQAPGKGLEWVAGIKSSSGNKYYADSVKGRFTISRDNSKNTLYLQMNSLRAEDTAVYYCARGPYDVWMDYWGQGTLVTVSS VL: not shown	0.0014	0.276	37	0.3	78.8	2.7	–	–	–
Ab40i7 (antibody, V domains shown, mIgG2a of Ab40, Y52aS) VH: EVQLLESGGGLVQPGGSLRLSCAASGFTFSSYGMNWVRQAPGKGLEWVAGIKSSSGNKYYADSVKGRFTISRDNSKNTLYLQMNSLRAEDTAVYYCARGPYDVWMDYWGQGTLVTVSS VL: not shown	0.0156	0.0163	7.6	0.2	121	3	–	–	–
Ab1 (Fab, V domains shown, clone from a phage library of monovalent human Fabs; also called clone Ab1) VH: EVQLLESGGGLVQPGGSLRLSCAASGFTFSSYAMHWVRQAPGKGLEWVSGISSNGGSTSYADSVKGRFTISRDNSKNTLYLQMNSLRAEDTAVYYCARVPYSVWIDYWGQGTLVTVSS VL: not shown	–	–	–	–	–	–	89.9	632	–
Ab28i2 (antibody, V domains shown, mIgG2a of Ab28) VH: EVQLLESGGGLVQPGGSLRLSCAASGFTFSSYSMHWVRQAPGKGLEWVANINSNGGNTGYADSVKGRFTISRDNSKNTLYLQMNSLRAEDTAVYYCARVPYDVWMDYWGQGTLVTVSS VL: not shown	–	0.26	2.5	0.6	1.5	2	–	–	–
Ab117 (Fab, V domains shown, clone from a phage library of monovalent human Fabs; also called clone Ab117) VH: EVQLLESGGGLVQPGGSLRLSCAASGFTFSSYAMSWVRQAPGKGLEWVAAIKSSASTIYYADSVKGRFTISRDNSKNTLYLQMNSLRAEDTAVYYCAREPYSVWMDYWGQGTLVTVSS VL: not shown	–	–	–	–	–	–	–	23.4	–
Ab48i1 (antibody, V domains shown, hIgG1 of Ab48) VH: EVQLLESGGGLVQPGGSLRLSCAASGFTFSSYSMNWVRQAPGKGLEWVANIKSSGSSTSYADSVKGRFTISRDNSKNTLYLQMNSLRAEDTAVYYCARGPYDVWMDYWGQGTLVTVSS VL: not shown	–	0.0286	0.2	0.2	1.5	1.9	–	–	–
Ab53i6 (antibody, V domains shown) VH: EVQLLESGGGLVQPGGSLRLSCAASGFTFSSYGMHWVRQAPGKGLEWVASIKYSSSNKYYADSVKGRFTISRDNSKNTLYLQMNSLRAEDTAVYYCARGPYDVWLDYWGQGTLVTVSS VL: not shown	0.0077	0.0363	32.3	0.2	> 1000	1.7	–	–	–
Ab53i2 (antibody, V domains shown, hIgG1 of Ab53) VH: EVQLLESGGGLVQPGGSLRLSCAASGFTFSSYSMHWVRQAPGKGLEWVASIKSSSSNKYYADSVKGRFTISRDNSKNTLYLQMNSLRAEDTAVYYCARGPYDVWLDYWGQGTLVTVSS VL: not shown	–	0.0675	0.2	0.1	1.5	0.6	–	–	–
Ab32i1 (antibody, V domains shown, hIgG1 of Ab32) VH: EVQLLESGGGLVQPGGSLRLSCAASGFTFSSYSMHWVRQAPGKGLEWVANINSNGGNTGYADSVKGRFTISRDNSKNTLYLQMNSLRAEDTAVYYCARVPYDVWMDYWGQGTLVTVSS VL: not shown	–	0.069	2.5	0.4	1.4	1.1	–	–	–
Ab53i3 (antibody, V domains shown, hIgG1 of Ab53, S33G) VH: EVQLLESGGGLVQPGGSLRLSCAASGFTFSSYGMHWVRQAPGKGLEWVASIKSSSSNKYYADSVKGRFTISRDNSKNTLYLQMNSLRAEDTAVYYCARGPYDVWLDYWGQGTLVTVSS VL: not shown	0.0042	> 1	6.3	0.8	18.5	8.3	–	–	–
Ab53i4 (antibody, V domains shown, mIgG2a of Ab53, S33G) VH: EVQLLESGGGLVQPGGSLRLSCAASGFTFSSYGMHWVRQAPGKGLEWVASIKSSSSNKYYADSVKGRFTISRDNSKNTLYLQMNSLRAEDTAVYYCARGPYDVWLDYWGQGTLVTVSS VL: not shown	0.0185	0.45	4.6	1.1	48.2	6.7	–	–	–
Ab48i2 (antibody, V domains shown, mIgG2a of Ab48) VH: EVQLLESGGGLVQPGGSLRLSCAASGFTFSSYSMNWVRQAPGKGLEWVANIKSSGSSTSYADSVKGRFTISRDNSKNTLYLQMNSLRAEDTAVYYCARGPYDVWMDYWGQGTLVTVSS VL: not shown	–	0.0068	0.2	0.2	1.9	1.6	–	–	–
Ab40i3 (antibody, V domains shown, mIgG2a of Ab40, G33S) VH: EVQLLESGGGLVQPGGSLRLSCAASGFTFSSYSMNWVRQAPGKGLEWVAGIKYSSGNKYYADSVKGRFTISRDNSKNTLYLQMNSLRAEDTAVYYCARGPYDVWMDYWGQGTLVTVSS VL: not shown	0.08	0.0098	41	0.2	> 1000	3.7	–	–	–
Ab53i1 (antibody, V domains shown, mIgG2a of Ab53) VH: EVQLLESGGGLVQPGGSLRLSCAASGFTFSSYSMHWVRQAPGKGLEWVASIKSSSSNKYYADSVKGRFTISRDNSKNTLYLQMNSLRAEDTAVYYCARGPYDVWLDYWGQGTLVTVSS VL: not shown	–	0.0259	0.4	0.3	4.2	1.6	–	–	–
